Measurements from patent US20220057415A1, “METHOD FOR DETECTING ALLERGIC DISEASES” (The University of Tokyo, priority 2018, published 2022).

What was measured:
BALB/C mice [1] = assay: Measurement of nasal cavity volume by computed tomography; format: in vivo
Protocol: To 23 BALB/C mice (female, 5 weeks old) (CLEA Japan, Inc., the same applies hereinafter), 50 μg of ovalbumin (manufactured by Sigma, sometimes abbreviated as “OVA” herein) dissolved and diluted with physiological saline (manufactured by Otsuka Pharmaceutical Co., Ltd.) and 1 mg of aluminum potassium sulfate (manufactured by Sigma-Aldrich Co. LLC.) were intraperitoneally administered simultaneously, and, after two weeks, 50 μg of OVA was intraperitoneally administered again for sensitization. […]
The nasal cavity volume of the AR model mice prepared in Example 1 was measured by computed tomography before the administration of OVA (6 mice), 24 hours after the fifth administration of OVA (6 mice), and 24 hours after the tenth administration of OVA (6 mice). As a control, the nasal cavity volume of the solvent-administered group prepared in Example 1 was measured in the same manner as above before the administration of the solvent (6 mice), 24 hours after the fifth administration of the solvent (6 mice), and 24 hours after the tenth administration of the solvent (6 mice). […] From the captured image, regions having a CT value of −900 to −300 HU (Hounsfield unit) were decided as the nasal cavities, and their volume was measured.

BALB/C mice [2] = assay: Evaluation of sneezing symptom; format: in vivo
Protocol: (§1) To 23 BALB/C mice (female, 5 weeks old) (CLEA Japan, Inc., the same applies hereinafter), 50 μg of ovalbumin (manufactured by Sigma, sometimes abbreviated as “OVA” herein) dissolved and diluted with physiological saline (manufactured by Otsuka Pharmaceutical Co., Ltd.) and 1 mg of aluminum potassium sulfate (manufactured by Sigma-Aldrich Co. LLC.) were intraperitoneally administered simultaneously, and, after two weeks, 50 μg of OVA was intraperitoneally administered again for sensitization. Two weeks after the second sensitization, OVA (400 μg/10 μL) was transnasally administered once daily for 5 days (5 times, in total) or 10 days (10 times, in total) for stimulation, thereby preparing allergic rhinitis (sometimes abbreviated as “AR” herein) model mice. […]
For the AR model mice (22 mice) and solvent-administered group (10 mice) prepared in Example 1, the numbers of sneezes for a period of 10 minutes from 1 minute to 11 minutes after each of the first to tenth administrations of OVA or the solvent were counted. For the upper respiratory inflammation model mice (9 mice) and single-time solvent-administered group (6 mice) prepared in Example 1, the numbers of sneezes were counted hourly after the administration of LPS or the solvent (until 10 hours later).

BALB/C mice [3] = assay: Histopathological count of immunocytes infiltrated into nasal turbinates; format: in vivo
Protocol: Specifically, the maxilla was excised from the mice and immediately immersed in 4% paraformaldehyde at 4° C. for 5 days. Then, it was immersed in EDTA every day and decalcified at 4° C. for 10 days. Next, the bone covering the orbit was excised with a razor, dehydrated and cleared, and then embedded in paraffin to prepare continuous section specimens having a width of 4 μm. Hematoxylin-eosin staining (HE staining), chloroacetate-esterase staining (CAE staining), toluidine blue staining (TB staining) or May-Grünwald Giemsa staining (MG staining) was performed according to a conventional method for encapsulation. Specific staining procedures are as will be described below. The stained nasal cavity tissue was observed under an optical microscope (ACT-10, manufactured by Nikon Corporation), and imaged using a digital microscope camera (OPTIPHOT-2, manufactured by Nikon Corporation). The number of immunocytes (connective tissue type mast cells, mucosal type mast cells, eosinophils and neutrophils) in the nasal turbinates (sites where inflammatory cells infiltrate when rhinitis occurs and where many capillaries gather) was counted within 16 to 24 randomly selected areas (magnification: ×400) per section. CAE staining is a staining method in which mast cell-specific esterase is stained red using naphthol AS-D chloroacetate as a substrate. The continuous section specimens prepared in the above item (1) were deparaffinized and used for staining. A 4% sodium nitrite solution and a new fuchsin solution were mixed at a ratio of 1:1, and then this solution and a naphthol solution were mixed at a ratio of 1:9. This solution and phosphate buffer (0.2M NaH2PO4, 0.2M Na2HPO4, pH 7.6) were mixed at a ratio of 1:20, and the sections were immersed for 10 minutes. The sections were washed with distilled water and then counterstained with a hematoxylin solution. The total number of the mast cells (connective tissue type mast cells and mucosal type mast cells) present in the connective tissue and mucosal tissue within 1 mm^2 was counted to calculate the mean value and standard deviation. TB staining stains acidic mucous polysaccharides. Acidic mucous polysaccharides are present in the connective tissue type mast cells and absent in the mucosal type mast cells. The continuous section specimens prepared in the above item (1) were deparaffinized and then immersed in a 0.05% toluidine blue solution (pH: 4.1) for 10 minutes. Then, they were decolorized with a 90% alcohol solution and then encapsulated. CAE staining stains both the connective tissue type mast cells and the mucosal type mast cells, whereas TB staining stains only the connective tissue type mast cells. CAE staining and TB staining were performed on different sections, and cells positive for CAE staining and positive for TB staining were decided as connective tissue type mast cells. Also, cells positive for CAE staining and negative for TB staining were decided as mucosal type mast cells. The total number of the connective tissue mast cells or mucosal type mast cells present in the connective tissue and mucosal tissue within 1 mm^2 was counted to calculate the mean value and standard deviation. May-Grünwald Giemsa staining stains eosinophil-specific eosinophilic granules red. The continuous section specimens prepared in the above item (1) were deparaffinized and then immersed in a May-Grünwald staining solution for 6 minutes. Then, the sections were washed with 1/15 M-phosphate buffer (×10) (0.2M NaH2PO4, 0.2M Na2HPO4, pH 6.4 to 6.8). Thereafter, the sections were immersed for 3 minutes in a solution obtained by mixing a Giemsa staining solution and distilled water at a ratio of 1:20. HE staining and MG staining were performed on different sections, and cells confirmed to have a multilobed nucleus by HE staining and positive for MG staining were decided as eosinophils. Also, cells have a multilobed nucleus by HE staining and negative for MG staining were decided as neutrophils. […]

[4] = test system: ovalbumin-specific IgE in serum; assay: Ovalbumin-specific IgE level in serum (ELISA); format: in vivo, BALB/C mice; settings: OVA-sensitized mice (two i.p. sensitizations, not stimulated with OVA); not detected in unsensitized group; mean±SD
Protocol: as §1
Antigen sensitization is known to increase the antigen-specific IgE value in serum. To confirm the ovalbumin sensitization of the allergic rhinitis model mice prepared in Example 1 (1), the ovalbumin-specific IgE level in serum was measured. […] The freeze-preserved serum was diluted 25 times, and then the IgE level was measured using Anti-Ovalbumin IgE (mouse) ELISA Kit (manufactured by Cayman Chemical Company) according to the instructions attached to the kit.

[5] = 10-time OVA-administered group vs 10-time solvent-administered group

B1: OVA: ovalbumin (manufactured by Sigma), antigen used for sensitization and stimulation of the allergy models (protein, UniProt P01012 2-386, looked up)
Ovalbumin: GSIGAASMEFCFDVFKELKVHHANENIFYCPIAIMSALAMVYLGAKDSTRTQINKVVRFDKLPGFGDSIEAQCGTSVNVHSSLRDILNQITKPNDVYSFSLASRLYAEERYPILPEYLQCVKELYRGGLEPINFQTAADQARELINSWVESQTNGIIRNVLQPSSVDSQTAMVLVNAIVFKGLWEKAFKDEDTQAMPFRVTEQESKPVQMMYQIGLFRVASMASEKMKILELPFASGTMSMLVLLPDEVSGLEQLESIINFEKLTEWTSSNVMEERKIKVYLPRMKMEEKYNLTSVLMAMGITDVFSSSANLSGISSAESLKISQAVHAAHAEINEAGREVVGSAEAGVDAASVSEEFRADHPFLFCIKHIATNAVLFFGRCVSP
nasal cavity volume (BALB/C mice [1]; 5-time OVA-administered group, 24 hours after fifth administration): decreased | nasal cavity volume (BALB/C mice [1]; 10-time OVA-administered group, compared with before the administration of OVA): significantly decreased | frequency of sneezing (BALB/C mice [2]; allergic rhinitis model mice, from the first transnasal administration of OVA): observed to increase | number of sneezes for 10 minutes after administration (BALB/C mice [2]; fifth administration of OVA, compared with solvent-administered group, maintained until tenth administration): significantly increased | number of eosinophils infiltrated into the nasal turbinates (BALB/C mice [3]; 5-time OVA-administered group vs 10-time solvent-administered group): significant increase | number of infiltrated eosinophils (BALB/C mice [3]; 5-time OVA-administered group vs LPS-administered group): significantly increased | number of mucosal type mast cells infiltrated into the nasal turbinates (BALB/C mice [3]; 5-time OVA-administered group, solvent-administered groups and LPS-administered group compared): no significant difference | number of infiltrated eosinophils (BALB/C mice [3]; 10-time OVA-administered group vs 5-time OVA-administered group): significantly increased | number of eosinophils infiltrated into the nasal turbinates (BALB/C mice [3]; [5]): significant increase | number of mucosal type mast cells infiltrated into the nasal turbinates (BALB/C mice [3]; [5]): significant increase | number of neutrophils infiltrated into the nasal turbinate (BALB/C mice [3]; OVA-administered groups (5 and 10 times) and solvent-administered groups): no significant difference | number of connective tissue type mast cells infiltrated into the nasal turbinates (BALB/C mice [3]; OVA-administered groups (5 and 10 times), solvent-administered groups and LPS-administered group compared): no significant difference | serum ovalbumin-specific IgE [4]: 23 ± 6.29 ng/mL
